To fix the notation:
B1: wildtype proline-rich (PR) domain of Gab1 (domain or fragment, human, UniProt Q13480 331-530, looked up)
chain: TSKLDTIPDIPPPRPPKPHPAHDRSPVETCSIPRTASDTDSSYCIPTAGMSPSRSNTISTVDLNKLRKDASSQDCYDIPRAFPSDRSSSLEGFHNHFKVKNVLTVGSVSSEELDENYVPMNPNSPPRQHSSSFTEPIQEANYVPMTPGTFDFSSFGMQVPPPAHMGFRSSPKTPPRRPVPVADCEPPPVDRNLKPDRKVK
B2: PR domain of Gab1 with the G1 motif mutated (domain or fragment, human, UniProt Q13480 331-530, looked up)
chain: TSKLDTIPDIPPPAPPAPHPAHDRSPVETCSIPRTASDTDSSYCIPTAGMSPSRSNTISTVDLNKLRKDASSQDCYDIPRAFPSDRSSSLEGFHNHFKVKNVLTVGSVSSEELDENYVPMNPNSPPRQHSSSFTEPIQEANYVPMTPGTFDFSSFGMQVPPPAHMGFRSSPKTPPRRPVPVADCEPPPVDRNLKPDRKVK
B3: PR domain of Gab1 with the G2 motif mutated (domain or fragment, human, UniProt Q13480 331-530, looked up)
chain: TSKLDTIPDIPPPRPPKPHPAHDRSPVETCSIPRTASDTDSSYCIPTAGMSPSRSNTISTVDLNKLRKDASSQDCYDIPRAFPSDRSSSLEGFHNHFKVKNVLTVGSVSSEELDENYVPMNPNSPPRQHSSSFTEPIQEANYVPMTPGTFDFSSFGMQVPPPAHMGFRSSPKTPPRRPVPVADCEPPPVDANLAPDRKVK

Sequence of wildtype full-length Grb2 (P62993 whole entry): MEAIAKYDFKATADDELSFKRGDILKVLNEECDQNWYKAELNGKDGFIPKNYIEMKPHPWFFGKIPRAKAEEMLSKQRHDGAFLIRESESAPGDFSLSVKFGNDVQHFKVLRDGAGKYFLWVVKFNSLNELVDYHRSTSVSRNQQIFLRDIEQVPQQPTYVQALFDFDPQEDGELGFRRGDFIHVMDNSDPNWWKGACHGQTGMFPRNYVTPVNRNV

This experiment has as its target wildtype full-length Grb2 (human, UniProt P62993 1-217). Description: ITC. A general note: In ITC the heat of successive injections is recorded.
With B1, binding was put at a Kd of 7.21 µM; the dH is -34.5 kcal/mol; the stoichiometry N (in general, the number of molecules, sites or subunits per partner or assembly) amounted to 1.94.
B2: the affinity, expressed as Kd, was 2.24 µM; the dH is -23.4 kcal/mol; the “stoichiometry N” value amounted to 1.07.
For B3, the Kd (in general, the concentration at which binding is half-saturated) is 20.3 µM; the dH was -13.2 kcal/mol; the “stoichiometry N” value was found to be 1.02.

The record behind these values is article PMC3365654 (The Febs Journal, 2012).
